T1: human FcγRIIb (human, UniProt P31994 43-217, limits assumed)
T1 construct: also called FcyRIfb; FcγIIB
T1 sequence: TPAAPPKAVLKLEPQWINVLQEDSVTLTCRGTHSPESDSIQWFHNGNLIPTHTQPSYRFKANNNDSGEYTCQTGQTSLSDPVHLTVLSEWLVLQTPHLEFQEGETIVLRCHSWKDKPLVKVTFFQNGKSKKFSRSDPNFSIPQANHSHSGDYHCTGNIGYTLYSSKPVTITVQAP

T2: human FcγRIIa type H (human, UniProt P12318 36-217)
T2 construct: also called FcyRIIaH; FcγRIIa(H)
T2 sequence: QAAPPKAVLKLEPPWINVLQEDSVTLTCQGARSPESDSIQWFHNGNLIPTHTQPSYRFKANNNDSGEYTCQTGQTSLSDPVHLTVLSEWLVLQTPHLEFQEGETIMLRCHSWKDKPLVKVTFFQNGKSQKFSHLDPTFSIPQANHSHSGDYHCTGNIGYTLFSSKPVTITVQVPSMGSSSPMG


Experiments:
Test in all cases: SPR (Biacore), FcγR over captured antibody; binding amount relative to IL6R-BF648/IL6R-L x100
[1] = molecular target: T1, human FcγRIIb
[2] = molecular target: T3, human FcγRIa (human, UniProt P12314 16-292, limits assumed)
T3 construct: also called FcyRIa; CD64

[3] = molecular target: T2, human FcγRIIa type H
[4] = molecular target: T4, human FcγRIIIa type V (human, UniProt P08637 17-208, limits assumed)
T4 construct: also called FcyRIIIa; FcγRIIIaV
T4 sequence (P08637 other isoform, or with tags, fused parts or gaps limits assumed): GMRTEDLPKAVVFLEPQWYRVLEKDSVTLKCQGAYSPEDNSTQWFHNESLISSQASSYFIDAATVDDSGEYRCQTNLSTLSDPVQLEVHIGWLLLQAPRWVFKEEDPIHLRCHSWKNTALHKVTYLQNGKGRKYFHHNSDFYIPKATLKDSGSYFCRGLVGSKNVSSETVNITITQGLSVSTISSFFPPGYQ

T3 sequence (P12314 16-292 limits assumed): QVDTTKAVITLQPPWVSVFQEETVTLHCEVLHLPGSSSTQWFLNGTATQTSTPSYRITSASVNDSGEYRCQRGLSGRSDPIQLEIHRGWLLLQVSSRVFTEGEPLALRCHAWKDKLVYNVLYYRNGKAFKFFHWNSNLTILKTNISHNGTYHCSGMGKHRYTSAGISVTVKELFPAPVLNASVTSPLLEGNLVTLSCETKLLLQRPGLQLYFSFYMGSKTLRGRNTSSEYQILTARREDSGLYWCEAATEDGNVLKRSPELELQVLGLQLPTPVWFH

relative binding [1]	relative binding [2]	relative binding [3]	relative binding [4]	Binder
100 % of IL6R-BF648/IL6R-L	100 % of IL6R-BF648/IL6R-L	100 % of IL6R-BF648/IL6R-L	100 % of IL6R-BF648/IL6R-L	IL6R-BF648/IL6R-L (antibody, human IgG1, name in EU numbering, Alterations are those introduced into IL6R-B3) heavy: not shown light: DIQMTQSPSSLSASVGDRVTITCRASQDISSYLNWYQQKPGKAPKLLIYYTSRLHSGVPSRFSGSGSGTDFTFTISSLQPEDIATYYCQQGNTLPYTFGQGTKVEIK
	113 % of IL6R-BF648/IL6R-L	132 % of IL6R-BF648/IL6R-L		IL6R-BP126/IL6R-L (antibody, human IgG1, name in EU numbering) heavy: QVQLQESGPGLVKPSETLSLTCAVSGHSISHDHAWSWVRQPPGEGLEWIGFISYSGITNYNPSLQGRVTISRDNSKNTLYLQMNSLRAEDTAVYYCARSLARTTAMDYWGEGTLVTVSSASTKGPSVFPLAPSSKSTSGGTAALGCLVKDYFPEPVTVSWNSGALTSGVHTFPAVLQSSGLYSLSSVVTVPSSSLGTQTYICNVNHKPSNTKVDKKVEPKSCDKTHTCPPCPAPELLGGDSVFLFPPKPKDTLMISRTPEVTCVVVDVSHEDPEVKFNWYVDGVEVHNAKTKPREEQYNSTYRVVSVLTVLHQDWLNGKEYKCKVSNLALPAPIEKTISKAKGQPREPQVYTLPPSRDELTKNQVSLTCLVKGFYPSDIAVEWESNGQPENNYKTTPPVLDSDGSFFLYSKLTVDKSRWQQGNVFSCSVMHEALHNHYTQESLSLSP light: DIQMTQSPSSLSASVGDRVTITCRASQDISSYLNWYQQKPGKAPKLLIYYTSRLHSGVPSRFSGSGSGTDFTFTISSLQPEDIATYYCQQGNTLPYTFGQGTKVEIK
	60 % of IL6R-BF648/IL6R-L	93 % of IL6R-BF648/IL6R-L	97 % of IL6R-BF648/IL6R-L	IL6R-BP912/IL6R-L (antibody, human IgG1, name in EU numbering) heavy: QVQLQESGPGLVKPSETLSLTCAVSGHSISHDHAWSWVRQPPGEGLEWIGFISYSGITNYNPSLQGRVTISRDNSKNTLYLQMNSLRAEDTAVYYCARSLARTTAMDYWGEGTLVTVSSASTKGPSVFPLAPSSKSTSGGTAALGCLVKDYFPEPVTVSWNSGALTSGVHTFPAVLQSSGLYSLSSVVTVPSSSLGTQTYICNVNHKPSNTKVDKKVEPKSCDKTHTCPPCPAPELLGGDSVFLFPPKPKDTLMISRTPEVTCVVVDVSHEDPEVKFNWYVDGVEVHNAKTKPREEQYNSTYRVVSVLTVLHQDWLNGKEYKCKVSNKALPRPIEKTISKAKGQPREPQVYTLPPSRDELTKNQVSLTCLVKGFYPSDIAVEWESNGQPENNYKTTPPVLDSDGSFFLYSKLTVDKSRWQQGNVFSCSVMHEALHNHYTQESLSLSP light: DIQMTQSPSSLSASVGDRVTITCRASQDISSYLNWYQQKPGKAPKLLIYYTSRLHSGVPSRFSGSGSGTDFTFTISSLQPEDIATYYCQQGNTLPYTFGQGTKVEIK
157 % of IL6R-BF648/IL6R-L	119 % of IL6R-BF648/IL6R-L	113 % of IL6R-BF648/IL6R-L		IL6R-BP112/IL6R-L (antibody, human IgG1, name in EU numbering) heavy: QVQLQESGPGLVKPSETLSLTCAVSGHSISHDHAWSWVRQPPGEGLEWIGFISYSGITNYNPSLQGRVTISRDNSKNTLYLQMNSLRAEDTAVYYCARSLARTTAMDYWGEGTLVTVSSASTKGPSVFPLAPSSKSTSGGTAALGCLVKDYFPEPVTVSWNSGALTSGVHTFPAVLQSSGLYSLSSVVTVPSSSLGTQTYICNVNHKPSNTKVDKKVEPKSCDKTHTCPPCPAPELLGGDSVFLFPPKPKDTLMISRTPEVTCVVVDVSHEDGEVKFNWYVDGVEVHNAKTKPREEQYNSTYRVVSVLTVLHQDWLNGKEYKCKVSNKALPAPIEKTISKAKGQPREPQVYTLPPSRDELTKNQVSLTCLVKGFYPSDIAVEWESNGQPENNYKTTPPVLDSDGSFFLYSKLTVDKSRWQQGNVFSCSVMHEALHNHYTQESLSLSP light: DIQMTQSPSSLSASVGDRVTITCRASQDISSYLNWYQQKPGKAPKLLIYYTSRLHSGVPSRFSGSGSGTDFTFTISSLQPEDIATYYCQQGNTLPYTFGQGTKVEIK
	95 % of IL6R-BF648/IL6R-L	37 % of IL6R-BF648/IL6R-L	96 % of IL6R-BF648/IL6R-L	IL6R-2B128/IL6R-L (antibody, human IgG1, name in EU numbering) heavy: QVQLQESGPGLVKPSETLSLTCAVSGHSISHDHAWSWVRQPPGEGLEWIGFISYSGITNYNPSLQGRVTISRDNSKNTLYLQMNSLRAEDTAVYYCARSLARTTAMDYWGEGTLVTVSSASTKGPSVFPLAPSSKSTSGGTAALGCLVKDYFPEPVTVSWNSGALTSGVHTFPAVLQSSGLYSLSSVVTVPSSSLGTQTYICNVNHKPSNTKVDKKVEPKSCDKTHTCPPCPAPELLGGDSVFLFPPKPKDTLMISRTPEVTCVVVDVSHEDPEVKFNWYVDGVEVHNAKTKPREEQDNSTYRVVSVLTVLHQDWLNGKEYKCKVSNKALPAPIEKTISKAKGQPREPQVYTLPPSRDELTKNQVSLTCLVKGFYPSDIAVEWESNGQPENNYKTTPPVLDSDGSFFLYSKLTVDKSRWQQGNVFSCSVMHEALHNHYTQESLSLSP light: DIQMTQSPSSLSASVGDRVTITCRASQDISSYLNWYQQKPGKAPKLLIYYTSRLHSGVPSRFSGSGSGTDFTFTISSLQPEDIATYYCQQGNTLPYTFGQGTKVEIK
118 % of IL6R-BF648/IL6R-L	124 % of IL6R-BF648/IL6R-L	96 % of IL6R-BF648/IL6R-L		IL6R-BP117/IL6R-L (antibody, human IgG1, name in EU numbering) heavy: QVQLQESGPGLVKPSETLSLTCAVSGHSISHDHAWSWVRQPPGEGLEWIGFISYSGITNYNPSLQGRVTISRDNSKNTLYLQMNSLRAEDTAVYYCARSLARTTAMDYWGEGTLVTVSSASTKGPSVFPLAPSSKSTSGGTAALGCLVKDYFPEPVTVSWNSGALTSGVHTFPAVLQSSGLYSLSSVVTVPSSSLGTQTYICNVNHKPSNTKVDKKVEPKSCDKTHTCPPCPAPELLGGDSVFLFPPKPKDTLMISRTPEVTCVVVDVSHEDPEVKFNWYVDGVEVHNAKTKPREEQYNSTYRVVSVLTVLHQDWLNGKEYKCKVSNDALPAPIEKTISKAKGQPREPQVYTLPPSRDELTKNQVSLTCLVKGFYPSDIAVEWESNGQPENNYKTTPPVLDSDGSFFLYSKLTVDKSRWQQGNVFSCSVMHEALHNHYTQESLSLSP light: DIQMTQSPSSLSASVGDRVTITCRASQDISSYLNWYQQKPGKAPKLLIYYTSRLHSGVPSRFSGSGSGTDFTFTISSLQPEDIATYYCQQGNTLPYTFGQGTKVEIK
114 % of IL6R-BF648/IL6R-L	125 % of IL6R-BF648/IL6R-L			IL6R-BP120/IL6R-L (antibody, human IgG1, name in EU numbering) heavy: QVQLQESGPGLVKPSETLSLTCAVSGHSISHDHAWSWVRQPPGEGLEWIGFISYSGITNYNPSLQGRVTISRDNSKNTLYLQMNSLRAEDTAVYYCARSLARTTAMDYWGEGTLVTVSSASTKGPSVFPLAPSSKSTSGGTAALGCLVKDYFPEPVTVSWNSGALTSGVHTFPAVLQSSGLYSLSSVVTVPSSSLGTQTYICNVNHKPSNTKVDKKVEPKSCDKTHTCPPCPAPELLGGDSVFLFPPKPKDTLMISRTPEVTCVVVDVSHEDPEVKFNWYVDGVEVHNAKTKPREEQYNSTYRVVSVLTVLHQDWLNGKEYKCKVSNEALPAPIEKTISKAKGQPREPQVYTLPPSRDELTKNQVSLTCLVKGFYPSDIAVEWESNGQPENNYKTTPPVLDSDGSFFLYSKLTVDKSRWQQGNVFSCSVMHEALHNHYTQESLSLSP light: DIQMTQSPSSLSASVGDRVTITCRASQDISSYLNWYQQKPGKAPKLLIYYTSRLHSGVPSRFSGSGSGTDFTFTISSLQPEDIATYYCQQGNTLPYTFGQGTKVEIK
101 % of IL6R-BF648/IL6R-L		127 % of IL6R-BF648/IL6R-L	127 % of IL6R-BF648/IL6R-L	IL6R-BP110/IL6R-L (antibody, human IgG1, name in EU numbering) heavy: QVQLQESGPGLVKPSETLSLTCAVSGHSISHDHAWSWVRQPPGEGLEWIGFISYSGITNYNPSLQGRVTISRDNSKNTLYLQMNSLRAEDTAVYYCARSLARTTAMDYWGEGTLVTVSSASTKGPSVFPLAPSSKSTSGGTAALGCLVKDYFPEPVTVSWNSGALTSGVHTFPAVLQSSGLYSLSSVVTVPSSSLGTQTYICNVNHKPSNTKVDKKVEPKSCDKTHTCPPCPAPELLGGDSVFLFPPKPKDTLMISRTPEVTCVVVDVSNEDPEVKFNWYVDGVEVHNAKTKPREEQYNSTYRVVSVLTVLHQDWLNGKEYKCKVSNKALPAPIEKTISKAKGQPREPQVYTLPPSRDELTKNQVSLTCLVKGFYPSDIAVEWESNGQPENNYKTTPPVLDSDGSFFLYSKLTVDKSRWQQGNVFSCSVMHEALHNHYTQESLSLSP light: DIQMTQSPSSLSASVGDRVTITCRASQDISSYLNWYQQKPGKAPKLLIYYTSRLHSGVPSRFSGSGSGTDFTFTISSLQPEDIATYYCQQGNTLPYTFGQGTKVEIK
	106 % of IL6R-BF648/IL6R-L	89 % of IL6R-BF648/IL6R-L	91 % of IL6R-BF648/IL6R-L	IL6R-BP078/IL6R-L (antibody, human IgG1, name in EU numbering) heavy: QVQLQESGPGLVKPSETLSLTCAVSGHSISHDHAWSWVRQPPGEGLEWIGFISYSGITNYNPSLQGRVTISRDNSKNTLYLQMNSLRAEDTAVYYCARSLARTTAMDYWGEGTLVTVSSASTKGPSVFPLAPSSKSTSGGTAALGCLVKDYFPEPVTVSWNSGALTSGVHTFPAVLQSSGLYSLSSVVTVPSSSLGTQTYICNVNHKPSNTKVDKKVEPKSCDKTHTCPPCPAPELLGGDSVFLFPPKPKDTLMISRTPEVTCVVVDVSHEDPEVKFNWYVDGVEVHNAKTKPREEQYNSTYRVVSVLTVLHQDWLNGKEYKCKVSNKALPMPIEKTISKAKGQPREPQVYTLPPSRDELTKNQVSLTCLVKGFYPSDIAVEWESNGQPENNYKTTPPVLDSDGSFFLYSKLTVDKSRWQQGNVFSCSVMHEALHNHYTQESLSLSP light: DIQMTQSPSSLSASVGDRVTITCRASQDISSYLNWYQQKPGKAPKLLIYYTSRLHSGVPSRFSGSGSGTDFTFTISSLQPEDIATYYCQQGNTLPYTFGQGTKVEIK

Reference: US20230257470A1 (published 2023)
